Experimental data: the supplement of paper PMC9170038

system: MS2 coat protein; assay: apparent KD of MS2 coat protein; higher = weaker reporter binding; conditions: Eterna round: R107; input ligand: arginine 13.2 mM
Procedure, shortened: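 Apparent KD per design is the median of normalised cluster binding-curve fits. Designed RNA switches transcribed on-chip from Illumina sequencing clusters were titrated with SNAP-549-labelled MS2 coat protein in twofold steps from 0.7 or 1.5 nM to 3 µM, with 0.8–1.5 h down to 10–20 min per step. Buffer: 100 mM Tris-HCl pH 7.5, 80 mM KCl, 4 mM MgCl2, without or with constant ligand.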

Row | Sequence | apparent KD of MS2 coat protein
1 | AAUAAUCUAGGUGAUACCAGCUCAACAUGAGGAUCACCCAUGUGCUCAUGAAGAGCUGAGAGCCCUUGGCAGCACCUAGAUAAUA [(Theo1)-(Ms2)-(M)'-(T)'-(Theo2)_Design2] | 461 nM
2 | AUGCAUAGCACGGCCGCCACUCCAUGUAAACAUGAGGAUCACCCAUGUAAUUUGGAUGUUUUAUAGAGGACCGGGUGAAAUGCAA [JR_ExcTryptoB_Sub004] | 8.42 nM
3 | UAACAUGAGGAUCACCCAUGUAUACUAAGUCGAGGACCGGUACGGCCGCCACUCGAAAUUGAAGAAUUGGCGGUAAAUGUAAGUA [JR_ExcTryptoA_Sub019] | 12.6 nM
4 | GGACAUGCAGGAAGGAGCGACACAGCAGAAACUGCAAAUCCUCCACACGAGGAUCACCCGUGUCAGGUAGGUCGCCUGCAUGUCG [ArgXB 14 #Zipper #MS2Left #StaticStem #Blueprint] | 76.7 nM
5 | GGAUAGGACACGGCCGCCACUACCUAGGAUACUAGCAACAUUUGGGUGCACGAGGAUCACCCGUGUAGGACCGGGUGUCCUAUCG | 202 nM
6 | ACCUACACGGAAACGUGUAGAAGUAAUGAUACCAGCAUGGAAACAUGCCCUUGGCAGCGUUACAUGAGGAUCACCCAUGUAUGUU [#01 Exclusion-TheophyllineA] | 16.4 nM
7 | ACGAACGAUAGUGAUACCAGACGUACAUGAGGAUCACCCAUGUUAUACACAUGGUUUAUUGUCCCUUGGCAGCACGAUAAGUUCG [JR_ExcTheophyB_Sub004] | 109 nM
8 | GACCGAUUAUAGUGCGAUUCUCUUGUGGAAGGAGCGCAGAGGACUGCAGGUAGGUCGCCACAUGAGGAUCACCCAUGUCAGGAUA [Esxebiat] | 65.6 nM
9 | UUUACAUGAGGAUCACCCAUGUGCCAUGAUACCAGACAUGAAAAUGUCCCUUGGCAGCAUGAGUGAUUCAUCCGAAAGGAUGUUU [Jehnice] | 114 nM
10 | CAGGUGGACUGAAGGAGCGAGUCAGGGACUUACAUGAGGAUCACCCAUGUCACGGUCGUCACUCAGGUAGGUCGCAGUUCGCCUC [Diinan] | 113 nM
11 | UAACAUGAGGAUCACCCAUGUAUACUUAGUCGAGGACCGGUACGGCCGCCACUCGUACUUCAAGAUUUGGCGGAAAAUGUAUGUA [JR_ExcTryptoA_Sub021] | 14.2 nM
12 | AAUAAGAUCCUCAUGUGAGUCGUACCAUAACGAGGACCGGUACGGCCGCCACUCGAACAUGAGGAUCACCCAUGUAGGUACGACA [M'-T'-T-MS2-T'' - Design 8] | 49.8 nM
13 | GGGAGGGAGGCGGCCGCCACUGAUUUUCAUAUAUAUAUAACAUGAGGAUCACCCAUGUAGAUAUGCAGGACCGGGCCUUUUUUUU [aaaI] | 21.3 nM
14 | ACAGGUACGCCUAUUAAAAUAAAACACCUACGAGGACCGGUACGGCCGCCACUCGGGUGACAUGAGGAUCACCCAUGUGGCUAAA [Ceeron] | 101 nM
15 | GGUUGAAACUGAAGGAGCGAGAUCACAAGAUUGGGUCUAACAUGAGGAUCACCCAUGUAAUCUCAGGUAGGUCGCAGUGACCAAA [Exclusion Arginine B GF 13] | 28 nM
16 | CCUAUGCAGUCGGCCGCCACUGAAAACAGCCUCAAAAUAAAUAUAACAUGAGGAUCACCCAUGUACAGGACCGGGACUGUAUAGG [Ex Tryptophan B 11] | 81 nM
17 | UGGGUAGAAUAGAUAGAUAGAUAAACUGAAGGAGCGAGAAUAAACUCAGGUAGGUCGCAGACAUGAGGAUCACCCAUGUAGAUGG [Same State Arginine A GF15] | 91.1 nM
18 | AUAUAUACAUGAGGAUCACCCAUGUUAUUUCGAGGACCGGUACGGCCGCCACUCGAUAGAGUAGAAGUAAAUUUUAAUUCAUGUA [JR_SSTryptoA_Sub008] | 13.9 nM
19 | GGACUAACCAGAAGGAGCGACACGCAGAAACUGCAAAUUCCUCCACACGAGGAUCACCCGUGUCAGGUAGGUCGCUGGUUAGUCG | 27.8 nM
20 | ACGUAAUGCAGAAGGAGCGUCUUAUGUAUACAUGAGGAUCACCCAUGUAAUAUGUGGUUGAGACAGGUAGGUCGCUGAAGUACGA [JR_SSArginiB_Sub009] | 46.9 nM

Row | Sequence | apparent KD of MS2 coat protein
21 | CUAUAUAUAGCGGCCGCCACUUACUCAUGAGGUAACAACAUGAGGAUCACCCAUGUUUGAGGAUCAAGGACCGGGCUAUAUAUAG [AstrosSSTryB#4] | 28.1 nM
22 | UAUCCACAUGAGGAUCACCCAUGUUAGGAAGGAGCGGUGAAUGAACCAGGUAGGUCGCCUAGCUGAGGACCAUCGAUGGAUUCGU [Exclusion - Arginine A (Freestyle 15)] | 17 nM
23 | CGGUAGGUAGGUCGAUAUCUACCCGUAGAAGGAGCGUAAGAAAAUACAGGUAGGUCGCUACGGAACAUGAGCAUCAGCCAUGUCC [SSArg A #12-Alt Ms2] | 13.9 nM
24 | AGUCUUAAUGGAAGGAGCGCAGUCAUAACAUGAGGAUCACCCAUGUCGAGGUGAGGGUCAUUGCAGGUAGGUCGCCAUACUAAGA [Same State - Arginine B (Freestyle 3)] | 125 nM
25 | GGGCGCUAUCCCGCGAGGGAUAGCGUUCGGCGAGGACCGGUACGGCCGCCACUCGAACGAGUGGGUACAUGAGGAUCACCCAUGU [Faa] | 23.1 nM
26 | AUAUAUAUAUAGAAAUAUAUAUAUAUGUAACGAGGACCGGUACGGCCGCCACUCGUGCCGGUGAUAACAUGAGGAUCACCCAUGU [Ex_TrypA - Every engine approves!] | 19.8 nM
27 | UGUAUGUGAUUUGAUACCAGACCAGCUGGUGGUACACGAGGAUCACCCGUGUAGGUUUGGGUCCCUUGGCAGCAAAUCGCAUACU [SS Theo B #24 Ms3] | 53.7 nM
28 | AUUAAUUUAUUUCUCAAUUUAAUUUCAGAAGGAGCGUGAUGUUUCACAGGUAGGUCGCUGUUUACAUGAGGAUCACCCAUGUUUU [JR_SSArginiA_Sub004] | 32 nM
29 | UUAAUCAUUGAUGAAAACAUUAAUGCAGAAGGAGCGUGAUAAAACACAGGUAGGUCGCUGAAGGGAACAUGAGGAUCACCCAUGU [AstrosSSArgA#16] | 27.3 nM
30 | AAUAAUAAGGCGGCCGCCACUAAACAUGAGGAUCACCCAUGUCUCGAGGGCUUGCGUUGGGAAAGUAGGACCGGGCCAAUAAUAA [Exclusion - Tryptophan B (Freestyle 7)] | 10.2 nM
31 | GAUAUGGAAACAUGUCAGAUCCUUACCGGUCGAGGACCGGUACGGCCGCCACUCGGAAAUAUUGUACAUGAGGAUCACCCAUGUA [Ex Tryptophan A 18] | 14.1 nM
32 | GCUAUGGCUGGAAGGAGCGUGAAUUUCAGCGAACAUGAGGAUCACCCAUGUAAGGAUAUGGCACAGGUAGGUCGCUAGCCAUAGC [#19 Same State - Arginine B] | 13.6 nM
33 | GCUGCCAUACGAAGGAGCGCUGCUGCGAUGUGGCGAACAUGAGGAUCACCCAUGUGGCAGCGGCAGGUAGGUCGCGUAUGGCAGC [#02 Exclusion - Arginine B] | 45.2 nM
34 | AAAGUUGAUGAGUUGUGUUUGUGUUCGGAAGGAGCGGGAAUUAUCUCAGGUAGGUCGCCGAACAUGAGGAUCACCCAUGUAUAAA [XArg-A 18 NuV2 original #dotplot2>1] | 40.2 nM
35 | UCAAGUGAACCAUGGAAACAUUCAAUAGAUACCAGCAUUAAAACCUGCCCUUGGCAGCUAUGAACAUGAGGAUCACCCAUGUGAA [theeternabot_exclusion_MS2_Theo_A_21] | 17.3 nM
36 | UAAUGCAGGUCGGCCGCCACUACAAACAUGAGGAUCACCCAUGUAGUUACUGGGUGAAGUGGCAGUAGGACCGGGACCUGCAUAA [Trp-Ms2-T'-M'-T''_Design1] | 102 nM
37 | GACAUGAGGAUCGAUACCAGCGACAUGAGGAUCACAUGAGGAUCACCCAUGUGUAGUAUACGCCCUUGGCAGCGAACAUGAGGAU [Same State Theophylline B 3] | 74.3 nM
38 | UAAACUACACAUGAGGAUCACCCAUGUGGCCGAGGACCGGUACGGCCGCCACUCGUGUGUUAAUAAAAGAACUGCAAAGUUCCUU [Aquen] | 63.1 nM
39 | UGUAUGUGAUCUGAUACCAGUCCAACUGGUAAAGCGUGAGGAUCACCCAUGCAAAAUUGGGACCCUUGGCAGCAGAUCGCAUACU | 48.6 nM

same assay, conditions: Eterna round: R107; input ligand: none

Row | Sequence | apparent KD of MS2 coat protein
40 | AAUAAUCUAGGUGAUACCAGCUCAACAUGAGGAUCACCCAUGUGCUCAUGAAGAGCUGAGAGCCCUUGGCAGCACCUAGAUAAUA [(Theo1)-(Ms2)-(M)'-(T)'-(Theo2)_Design2] | 739 nM
